# From patent US4587340A, “Biopterin analogs” (Burroughs Wellcome Co., priority 1984, dated 1986)
# What was measured:
# [1] = tested on: COCC1CNc2nc(N)[nH]c(=O)c2N1; assay: Tyrosine hydroxylase cofactor assay; assay type: biochemical
# Experimental: Tyrosine hydroxylase was partially purified through a 25-45% ammonium sulfate fraction. […] The enzyme was assayed by a modification of the method of Nagatsu, T., Levitt, M., and Udenfriend, S. (Anal. Biochem. 9, 122, (1964)) where the Dowex chromatography step was replaced by a charcoal extraction.
# [2] = tested on: C[C@H](O)[C@H](O)[C@H]1CNc2nc(N)[nH]c(=O)c2N1; assay: purified protein, by the assay type
# Chain of Tyrosine hydroxylase (Homo sapiens) (chain, as listed by the source): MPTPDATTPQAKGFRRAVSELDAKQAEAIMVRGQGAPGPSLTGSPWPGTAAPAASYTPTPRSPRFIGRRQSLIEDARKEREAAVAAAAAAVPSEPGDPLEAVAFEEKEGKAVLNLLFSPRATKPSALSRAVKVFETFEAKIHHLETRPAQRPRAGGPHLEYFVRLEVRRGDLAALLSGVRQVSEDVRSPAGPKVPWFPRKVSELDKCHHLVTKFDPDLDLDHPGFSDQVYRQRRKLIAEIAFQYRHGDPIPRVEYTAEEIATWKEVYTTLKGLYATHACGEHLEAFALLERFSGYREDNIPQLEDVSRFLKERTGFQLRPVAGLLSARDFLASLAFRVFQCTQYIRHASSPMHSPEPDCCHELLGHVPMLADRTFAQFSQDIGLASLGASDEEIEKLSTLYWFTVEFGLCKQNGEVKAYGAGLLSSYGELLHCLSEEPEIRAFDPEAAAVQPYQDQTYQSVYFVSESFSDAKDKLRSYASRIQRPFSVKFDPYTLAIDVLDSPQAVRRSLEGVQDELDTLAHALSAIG
substance,measurement,setting,value
Tyrosine hydroxylase (Homo sapiens),Km,[1],65 µM
same,Km,[2],110 µM
